Columns and labels:
[1] = target: MERTK (UniProt Q12866); assay: phosphorylation enrichment, bacterial display (enrichment ratio); higher = better substrate or ligand; peptides without Tyr show the background
[2] = target: EPHB1 (UniProt P54762); assay: as above
[3] = target: FGFR1 (UniProt P11362); assay: as above
[4] = target: EPHB2 (UniProt P29323); assay: as above
[5] = target: Fes (UniProt P07332); assay: as above
[6] = tested on: c-Src; assay: as above
[7] = target: Jak2 (UniProt O60674); assay: as above
[8] = target: Fyn (UniProt P06241); assay: as above
[9] = tested on: AncSZ; assay: as above
[10] = target: Hck (UniProt P08631); assay: as above
[11] = target: FGFR3 (UniProt P22607); assay: as above
[12] = tested on: c-Abl (mouse); assay: as above
[13] = tested on: Fer (mouse); assay: as above
[14] = target: c-Src SH2; assay: SH2 binding enrichment of the phosphorylated peptide, bacterial display (enrichment ratio); higher = better substrate or ligand; peptides without Tyr show the background
[15] = target: Grb2 SH2 (UniProt P62993); assay: as above
[16] = target: SHP2-C SH2; assay: as above
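Throughout, for SH2 binding enrichment of the phosphorylated peptide, bacterial display: peptide library displayed on the E. coli surface as eCPX fusions, selected cells deep-sequenced, score is each peptide's frequency after selection divided by its frequency in the input.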
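Throughout, for phosphorylation enrichment, bacterial display: 11-residue human phosphosite peptides and single-mutation variants displayed on the E. coli surface, counted by deep sequencing, each peptide's frequency after selection divided by its frequency in the unselected input library; frequency after pTyr selection over input frequency; kinase dosed for 20-30% of maximal phosphorylation in three min.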

Sequence of MERTK (Q12866 whole entry, looked up): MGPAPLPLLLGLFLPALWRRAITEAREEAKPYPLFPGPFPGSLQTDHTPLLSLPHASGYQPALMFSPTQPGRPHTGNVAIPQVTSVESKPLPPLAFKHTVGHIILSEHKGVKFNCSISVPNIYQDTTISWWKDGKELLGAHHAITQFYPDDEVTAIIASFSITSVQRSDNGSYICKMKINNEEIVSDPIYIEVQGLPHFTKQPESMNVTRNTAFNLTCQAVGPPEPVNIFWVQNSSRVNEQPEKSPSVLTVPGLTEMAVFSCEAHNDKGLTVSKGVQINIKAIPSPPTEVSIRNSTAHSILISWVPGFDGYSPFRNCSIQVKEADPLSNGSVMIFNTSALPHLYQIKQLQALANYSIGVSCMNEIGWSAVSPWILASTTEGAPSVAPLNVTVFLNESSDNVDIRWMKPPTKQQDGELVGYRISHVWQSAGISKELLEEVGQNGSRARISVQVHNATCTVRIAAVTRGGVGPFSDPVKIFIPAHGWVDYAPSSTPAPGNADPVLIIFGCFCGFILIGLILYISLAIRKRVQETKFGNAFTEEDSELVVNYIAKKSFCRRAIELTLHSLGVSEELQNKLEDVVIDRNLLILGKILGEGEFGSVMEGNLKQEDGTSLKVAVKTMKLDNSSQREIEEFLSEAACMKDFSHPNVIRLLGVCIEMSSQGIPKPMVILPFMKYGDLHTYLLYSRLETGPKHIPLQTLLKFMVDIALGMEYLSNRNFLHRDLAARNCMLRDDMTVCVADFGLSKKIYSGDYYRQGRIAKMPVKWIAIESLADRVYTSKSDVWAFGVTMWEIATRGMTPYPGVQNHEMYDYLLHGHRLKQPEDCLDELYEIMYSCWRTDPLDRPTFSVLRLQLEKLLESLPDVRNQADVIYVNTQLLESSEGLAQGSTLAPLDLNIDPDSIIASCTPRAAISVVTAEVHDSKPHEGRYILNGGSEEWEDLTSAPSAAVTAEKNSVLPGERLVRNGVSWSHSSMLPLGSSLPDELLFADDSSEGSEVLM
Sequence of EPHB2 (P29323 whole entry, looked up): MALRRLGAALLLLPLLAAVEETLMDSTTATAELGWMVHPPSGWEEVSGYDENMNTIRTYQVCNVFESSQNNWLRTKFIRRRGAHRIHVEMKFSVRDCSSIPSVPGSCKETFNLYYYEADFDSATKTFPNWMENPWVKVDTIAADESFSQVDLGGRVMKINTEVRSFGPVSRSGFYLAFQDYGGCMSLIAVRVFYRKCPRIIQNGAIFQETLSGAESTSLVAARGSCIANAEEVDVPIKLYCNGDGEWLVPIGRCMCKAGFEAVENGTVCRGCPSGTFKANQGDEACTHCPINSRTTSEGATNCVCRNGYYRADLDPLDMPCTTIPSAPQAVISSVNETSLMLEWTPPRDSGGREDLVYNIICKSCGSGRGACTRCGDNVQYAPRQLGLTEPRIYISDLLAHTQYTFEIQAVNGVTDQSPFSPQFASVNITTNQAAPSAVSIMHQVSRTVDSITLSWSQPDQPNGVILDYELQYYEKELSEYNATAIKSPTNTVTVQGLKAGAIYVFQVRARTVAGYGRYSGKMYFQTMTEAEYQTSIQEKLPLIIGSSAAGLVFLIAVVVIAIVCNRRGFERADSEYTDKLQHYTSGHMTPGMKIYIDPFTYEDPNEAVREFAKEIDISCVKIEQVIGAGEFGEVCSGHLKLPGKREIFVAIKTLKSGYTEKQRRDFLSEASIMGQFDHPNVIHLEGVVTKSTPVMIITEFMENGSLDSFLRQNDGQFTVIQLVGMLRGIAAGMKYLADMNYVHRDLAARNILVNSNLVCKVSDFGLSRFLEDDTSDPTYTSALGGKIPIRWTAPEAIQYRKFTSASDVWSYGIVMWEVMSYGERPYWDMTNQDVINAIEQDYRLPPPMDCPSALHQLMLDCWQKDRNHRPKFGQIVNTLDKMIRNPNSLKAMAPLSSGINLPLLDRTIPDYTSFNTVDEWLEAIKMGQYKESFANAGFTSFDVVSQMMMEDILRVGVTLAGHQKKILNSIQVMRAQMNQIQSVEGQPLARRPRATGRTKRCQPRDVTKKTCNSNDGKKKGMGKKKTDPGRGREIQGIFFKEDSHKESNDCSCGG
Sequence of EPHB1 (P54762 whole entry, looked up): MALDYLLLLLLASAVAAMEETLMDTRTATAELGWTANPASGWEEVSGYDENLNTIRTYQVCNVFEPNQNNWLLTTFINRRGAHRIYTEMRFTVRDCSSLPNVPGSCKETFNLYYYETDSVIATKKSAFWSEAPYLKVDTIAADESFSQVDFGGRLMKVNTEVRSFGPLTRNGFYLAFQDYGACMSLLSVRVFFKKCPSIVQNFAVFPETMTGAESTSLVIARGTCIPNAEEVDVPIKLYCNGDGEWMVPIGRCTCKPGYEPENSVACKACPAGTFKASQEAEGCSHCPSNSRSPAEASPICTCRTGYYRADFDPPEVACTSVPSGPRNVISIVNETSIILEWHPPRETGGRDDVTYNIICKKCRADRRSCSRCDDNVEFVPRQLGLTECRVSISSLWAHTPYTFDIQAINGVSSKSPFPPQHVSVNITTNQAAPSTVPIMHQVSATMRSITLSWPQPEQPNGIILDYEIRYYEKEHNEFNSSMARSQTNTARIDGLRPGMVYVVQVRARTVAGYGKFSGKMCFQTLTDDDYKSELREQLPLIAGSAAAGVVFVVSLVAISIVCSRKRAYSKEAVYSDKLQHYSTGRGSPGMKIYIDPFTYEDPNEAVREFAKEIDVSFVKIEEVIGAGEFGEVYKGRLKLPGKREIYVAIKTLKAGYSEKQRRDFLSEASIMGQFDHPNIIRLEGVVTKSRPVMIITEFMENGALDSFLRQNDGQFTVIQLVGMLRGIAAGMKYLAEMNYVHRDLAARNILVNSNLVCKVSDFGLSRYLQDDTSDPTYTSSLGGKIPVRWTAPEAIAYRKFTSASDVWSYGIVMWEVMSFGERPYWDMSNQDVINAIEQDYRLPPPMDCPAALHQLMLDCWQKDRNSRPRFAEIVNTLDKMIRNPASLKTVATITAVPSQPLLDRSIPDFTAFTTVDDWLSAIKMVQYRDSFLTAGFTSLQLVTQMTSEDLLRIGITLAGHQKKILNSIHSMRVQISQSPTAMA
Sequence of FGFR1 (P11362 whole entry, looked up): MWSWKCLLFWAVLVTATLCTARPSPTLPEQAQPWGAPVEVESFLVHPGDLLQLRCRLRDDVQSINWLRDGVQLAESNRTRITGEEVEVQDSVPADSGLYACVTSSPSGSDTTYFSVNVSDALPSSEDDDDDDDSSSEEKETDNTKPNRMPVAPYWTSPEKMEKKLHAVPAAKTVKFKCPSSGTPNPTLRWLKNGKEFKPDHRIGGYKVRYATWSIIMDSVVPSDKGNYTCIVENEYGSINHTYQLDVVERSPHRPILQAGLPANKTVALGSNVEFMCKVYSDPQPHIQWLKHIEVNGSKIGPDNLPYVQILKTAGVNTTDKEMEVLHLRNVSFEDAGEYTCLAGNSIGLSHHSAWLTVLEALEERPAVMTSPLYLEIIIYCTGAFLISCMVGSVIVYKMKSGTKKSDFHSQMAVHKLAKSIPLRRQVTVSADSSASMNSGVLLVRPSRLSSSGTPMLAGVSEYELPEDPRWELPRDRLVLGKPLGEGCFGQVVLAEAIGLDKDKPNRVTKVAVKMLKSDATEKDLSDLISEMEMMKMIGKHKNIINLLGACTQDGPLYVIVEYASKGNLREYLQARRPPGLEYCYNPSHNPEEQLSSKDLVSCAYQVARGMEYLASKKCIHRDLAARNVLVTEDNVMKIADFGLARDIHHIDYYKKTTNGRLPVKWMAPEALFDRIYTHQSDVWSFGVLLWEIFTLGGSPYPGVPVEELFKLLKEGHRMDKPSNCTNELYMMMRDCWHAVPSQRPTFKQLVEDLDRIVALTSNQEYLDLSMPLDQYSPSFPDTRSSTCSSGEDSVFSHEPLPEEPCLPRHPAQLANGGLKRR
Sequence of Hck (P08631 whole entry, looked up): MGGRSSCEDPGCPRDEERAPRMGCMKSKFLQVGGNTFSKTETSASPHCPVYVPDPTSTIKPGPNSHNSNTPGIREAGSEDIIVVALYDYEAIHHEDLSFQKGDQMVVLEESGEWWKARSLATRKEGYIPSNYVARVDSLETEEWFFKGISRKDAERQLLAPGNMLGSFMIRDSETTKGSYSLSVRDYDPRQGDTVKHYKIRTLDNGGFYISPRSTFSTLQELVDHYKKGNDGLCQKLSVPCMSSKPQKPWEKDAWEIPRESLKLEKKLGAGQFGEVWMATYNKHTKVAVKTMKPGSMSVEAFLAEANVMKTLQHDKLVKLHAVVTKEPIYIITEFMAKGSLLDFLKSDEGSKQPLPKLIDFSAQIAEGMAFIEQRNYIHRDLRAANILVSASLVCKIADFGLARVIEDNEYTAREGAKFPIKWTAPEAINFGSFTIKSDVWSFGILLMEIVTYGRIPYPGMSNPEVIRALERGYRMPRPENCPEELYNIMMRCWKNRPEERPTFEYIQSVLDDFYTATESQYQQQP
Sequence of Fyn (P06241 whole entry, looked up): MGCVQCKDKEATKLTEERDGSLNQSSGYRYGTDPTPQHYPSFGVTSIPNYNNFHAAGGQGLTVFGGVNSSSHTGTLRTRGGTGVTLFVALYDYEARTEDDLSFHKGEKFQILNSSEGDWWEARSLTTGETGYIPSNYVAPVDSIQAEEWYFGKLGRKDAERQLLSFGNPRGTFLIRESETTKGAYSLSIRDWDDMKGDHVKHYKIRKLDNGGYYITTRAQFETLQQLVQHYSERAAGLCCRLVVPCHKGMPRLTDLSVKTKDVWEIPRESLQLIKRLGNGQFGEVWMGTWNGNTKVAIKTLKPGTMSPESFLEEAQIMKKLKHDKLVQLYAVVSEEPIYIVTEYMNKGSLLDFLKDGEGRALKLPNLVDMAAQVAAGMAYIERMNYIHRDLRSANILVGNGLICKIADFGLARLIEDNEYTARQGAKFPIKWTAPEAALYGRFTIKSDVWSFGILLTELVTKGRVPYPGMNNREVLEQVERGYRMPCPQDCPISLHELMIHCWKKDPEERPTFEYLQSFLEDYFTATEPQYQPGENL

Row | Sequence | SH2 binding enrichment [14] | SH2 binding enrichment [15] | SH2 binding enrichment [16] | phosphorylation enrichment [1] | phosphorylation enrichment [2] | phosphorylation enrichment [3] | phosphorylation enrichment [4] | phosphorylation enrichment [5] | phosphorylation enrichment [6] | phosphorylation enrichment [7] | phosphorylation enrichment [8] | phosphorylation enrichment [9] | phosphorylation enrichment [10] | phosphorylation enrichment [11] | phosphorylation enrichment [12] | phosphorylation enrichment [13]
1 | DNEYAYLKAII [HNF4A_Y288] | 0.391 | 0.732 | 0.513 | 0.603 | 1.68 | 3.79 | 0.97 | 1.01 | 0.599 | 0.856 | 0.615 | 1.27 | 1.58 | 2.4 | 2.79 | 0.667
2 | VKANTYEKFWP [GATM_Y100_YF] | 0.946 | 0.931 | 0.569 | 1.8 | 0.74 | 0.317 | 0.374 | 0.793 | 2.69 | 0.717 | 1.47 | 0.627 | 1.07 | 0.487 | 0.704 | 0.595
3 | LYSINYLHFGE [KDM4C_Y201] | 1.31 | 1.54 | 2.6 | 11 | 10.7 | 3.6 | 9.01 | 1.57 | 2.56 | 1.1 | 3.5 | 2.05 | 3.5 | 3.52 | 2.08 | 11.1
4 | LYSGDYYRIQG [DDR2_Y740] | 0.984 | 1.02 | 0.531 | 19.3 | 29.2 | 32.7 | 30.3 | 1.83 | 10.5 | 23.8 | 11.5 | 7.93 | 10.4 | 26 | 7.77 | 1.81
5 | RSSGGYEPRGR [FUS_Y239] | 0.488 | 0.674 | 0.521 | 0.425 | 0.323 | 0.555 | 0.452 | 0.569 | 0.358 | 0.683 | 0.412 | 0.652 | 0.379 | 0.403 | 0.384 | 0.418
6 | NTILLYHIMAW [GPR143_Y157_S152N] | 0.577 | 0.801 | 0.829 | 4.42 | 5.65 | 3.19 | 3.9 | 1.62 | 1.27 | 2.07 | 0.8 | 1.52 | 1.56 | 3.15 | 1.25 | 0.89
7 | FRIDHYLGKEM [G6PD_Y202_YF] | 0.625 | 0.932 | 0.607 | 0.371 | 0.448 | 0.455 | 0.41 | 1.63 | 0.32 | 0.675 | 0.427 | 0.808 | 0.49 | 0.671 | 0.54 | 0.41

Continued, in another order:

Row | SH2 binding enrichment [14] | SH2 binding enrichment [15] | SH2 binding enrichment [16] | Sequence | phosphorylation enrichment [1] | phosphorylation enrichment [2] | phosphorylation enrichment [3] | phosphorylation enrichment [4] | phosphorylation enrichment [5] | phosphorylation enrichment [6] | phosphorylation enrichment [7] | phosphorylation enrichment [8] | phosphorylation enrichment [9] | phosphorylation enrichment [10] | phosphorylation enrichment [11] | phosphorylation enrichment [12] | phosphorylation enrichment [13]
8 | 0.471 | 0.879 | 0.654 | FSKQIYKGMVA [PCDH15_Y931_R929Q] | 0.346 | 0.351 | 0.337 | 0.342 | 0.479 | 0.365 | 0.472 | 0.502 | 0.441 | 0.384 | 0.432 | 0.42 | 0.331
9 | 2.01 | 1.33 | 1.73 | CTAIHYNFMCN [TP53_Y234_T231A_YF] | 0.38 | 0.622 | 0.598 | 0.526 | 0.909 | 0.525 | 0.863 | 0.442 | 0.814 | 0.597 | 0.614 | 0.735 | 0.461
10 | 0.434 | 0.945 | 0.83 | AKLDEYIAIAK [RCOR3_Y46] | 0.522 | 0.614 | 0.535 | 0.565 | 0.949 | 0.367 | 0.79 | 0.479 | 0.92 | 0.473 | 0.711 | 0.621 | 0.452
11 | 19.8 | 0.891 | 26.3 | TVSRPYSFIEF [SEC22B_Y110] | 6.03 | 0.527 | 3.02 | 0.403 | 1.12 | 3.15 | 0.848 | 0.993 | 0.746 | 0.705 | 2.19 | 0.639 | 11.3
12 | 0.957 | 0.897 | 1.08 | MCITQYKRESQ [PRNP_Y218_E219K] | 0.475 | 0.384 | 0.443 | 0.587 | 0.837 | 0.42 | 0.736 | 0.519 | 0.875 | 0.433 | 0.606 | 0.454 | 0.501
13 | 0.39 | 0.598 | 0.565 | KLFFIYTPGTT [SLC27A4_Y245_S247P_YF] | 0.363 | 0.637 | 0.553 | 0.675 | 1.49 | 0.46 | 1.45 | 0.447 | 1.49 | 0.509 | 0.877 | 0.848 | 0.521
14 | 0.411 | 0.939 | 0.559 | EDSEYYRAFEE [CASQ2_Y179_K180R] | 0.497 | 0.823 | 0.937 | 0.724 | 1.6 | 0.754 | 1.37 | 0.765 | 2.96 | 0.675 | 1.26 | 0.915 | 0.518
15 | 0.494 | 1.04 | 0.918 | KWTVDYLGQVG [TYW5_Y48_S50G] | 0.336 | 0.515 | 0.531 | 0.444 | 0.774 | 0.392 | 0.845 | 0.46 | 0.913 | 0.487 | 0.602 | 0.621 | 0.405
16 | 0.523 | 0.877 | 0.75 | DWRQEYVLNEP [TGM1_Y267_S272P] | 0.495 | 0.407 | 1.7 | 0.426 | 1.13 | 1.89 | 0.988 | 0.672 | 1.24 | 0.397 | 1.24 | 0.669 | 0.55
17 | 1.33 | 0.755 | 0.886 | HNVPIYEGYGL [ACTA1_Y168_A172G] | 10.9 | 31.8 | 0.666 | 41.9 | 5.48 | 11.5 | 0.805 | 20 | 1.52 | 17.4 | 0.941 | 3.23 | 27.9
